{
  "source": "patent US20210145944",
  "proteins": {"B1": {"name": "cathepsin G (enzyme, UniProt P08311 21-244, looked up, species assumed)", "Cathepsin G": "IIGGRESRPHSRPYMAYLQIQSPAGQSRCGGFLVREDFVLTAAHCWGSNINVTLGAHNIQRRENTQQHITARRAIRHPQYNQRTIQNDIMLLQLSRRVRRNRNVNPVALPRAQEGLRPGTLCTVAGWGRVSMRRGTDTLREVQLRVQRDRQCLRIFGSYDPRRQICVGDRRERKAAFKGDSGGPLLCNNVAHGIVSYGKSSGVPPEVFTRVSSFLPWIRTTMRS", "modifications": "immobilized"}},
  "key": {"Tau-441 (P301L)": {"molecular_target": "Tau-441 (P301L) (UniProt P10636)", "sequence (P10636 other isoform, or with tags, fused parts or gaps P301L)": "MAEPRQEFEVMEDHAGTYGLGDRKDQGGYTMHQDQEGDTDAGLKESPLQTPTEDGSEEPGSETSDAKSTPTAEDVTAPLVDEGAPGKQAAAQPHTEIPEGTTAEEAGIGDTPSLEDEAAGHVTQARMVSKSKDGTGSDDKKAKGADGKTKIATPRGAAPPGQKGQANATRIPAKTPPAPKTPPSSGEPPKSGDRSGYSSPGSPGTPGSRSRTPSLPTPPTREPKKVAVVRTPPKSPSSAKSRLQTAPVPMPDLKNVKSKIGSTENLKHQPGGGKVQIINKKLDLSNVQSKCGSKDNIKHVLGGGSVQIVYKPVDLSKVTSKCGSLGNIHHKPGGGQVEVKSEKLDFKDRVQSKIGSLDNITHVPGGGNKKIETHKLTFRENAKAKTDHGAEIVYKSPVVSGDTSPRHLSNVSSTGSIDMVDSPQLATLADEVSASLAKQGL"}},
  "data": [
    {"protein": "B1", "values": [
      {"measurement": "digestion on immobilized protease column, SDS-PAGE silver stain (FIG. 3A)", "setting": "Tau-441 (P301L)", "value": "rapidly degraded"},
      {"measurement": "loss of the Tau-441 (P301L) band on a silver-stained SDS-PAGE gel after incubation on the protease column", "setting": "Tau-441 (P301L)", "value": "no band in the Cathepsin G column lanes at 2, 10 and 20 min; the No protease column lanes show a strong band of equal strength at 2, 10 and 20 min"},
      {"measurement": "casein digestion by resin-immobilized protease, fluorescence (RFU) at 5 and 60 min", "setting": "Bodipy-labelled casein", "value": "bar at 5 min about 2.3x10^7 RFU, bar at 60 min about 5.3x10^7 RFU; highest of the three groups; no control bar drawn"},
      {"measurement": "casein digestion, fluorescence (RFU) of Bodipy-labelled casein after 1 h against protease concentration in solution", "setting": "Bodipy-labelled casein", "value": "near 0 up to about 0.1 ug/ml, rises to about 3.4x10^7 RFU; the last two points (about 50 and 100 ug/ml) are at the same height"},
      {"measurement": "casein-digestion activity, immobilized protease, fluorescence", "setting": "Bodipy-labelled casein", "value": "exhibited casein-digestion activity at 5 minute and 60 minute incubation times"},
      {"measurement": "casein-digestion activity, protease in solution, fluorescence", "setting": "Bodipy-labelled casein", "value": "exhibited casein-digestion activity having linear reaction kinetics up to approximately 6 µg/ml of each protease"}
    ]}
  ]
}
